# Measured values: patent US20260167721A1 (ABLEXIS, published 2026)
# Substitutions are numbered along the chain they refer to.
# B1: CD3 × CD33-BspAb125 (bispecific antibody)
# chain 1: not shown
# chain 2: EVQLVQSGAEVKKPGSSVKVSCKASGYTITDSNIHWVRQAPGQSLEWIGYIYPYNGGTDYNQKFKNRATLTVDNPTNTAYMELSSLRSEDTAFYYCVNGNPWLAYWGQGTLVTVSSASTKGPSVFPLAPSSKSTSGGTAALGCLVKDYFPEPVTVSWNSGALTSGVHTFPAVLQSSGLYSLSSVVTVPSSSLGTQTYICNVNHKPSNTKVDKRVEPKSCDKTHTCPPCPAPEFEGGPSVFLFPPKPKDTLMISRTPEVTCVVVDVSHEDPEVKFNWYVDGVEVHNAKTKPREEQYNSTYRVVSVLTVLHQDWLNGKEYKCKVSNKALPASIEKTISKAKGQPREPQVCTLPPSREEMTKNQVSLSCAVKGFYPSDIAVEWESNGQPENNYKTTPPVLDSDGSFFLVSKLTVDKSRWQQGNVFSCSVMHEALHNRFTQKSLSLSPGK
# chain 3: DIQLTQSPSTLSASVGDRVTITCRASESLDNYGIRFLTWFQQKPGKAPKLLMYAASNQGSGVPSRFSGSGSGTEFTLTISSLQPDDFATYYCQQTKEVPWSFGQGTKVEVKRTVAAPSVFIFPPSDEQLKSGTASVVCLLNNFYPREAKVQWKVDNALQSGNSQESVTEQDSKDSTYSLSSTLTLSKADYEKHKVYACEVTHQGLSSPVTKSFNRGEC
# B2: Low affinity Control (Control Humanized anti-CD3 (low affinity) scFv-Fc knob/TM with gemtuzumab arm) (bispecific antibody)
# scFv: EVQLVESGGGLVQPGGSLRLSCAASGFTFSTYAMNWVRQAPGKGLEWVGRIRSKYNNYATYYADSVKGRFTISRDDSKNTLYLQMNSLRAEDTAVYYCVRHGNFGDSYVSWFDYWGQGTLVTVSSGKPGSGKPGSGKPGSGKPGSQAVVTQEPSLTVSPGGTVTLTCGSSTGAVTTSNYANWVQQKPGKSPRGLIGGTNKRAPGVPARFSGSLLGGKAALTISGAQPEDEADYYCALWYSNHWVFGGGTKLTVLGGGGSDKTHTCPPCPAPEFEGGPSVFLFPPKPKDTLMISRTPEVTCVVVDVSHEDPEVKFNWYVDGVEVHNAKTKPREEQYNSTYRVVSVLTVLHQDWLNGKEYKCKVSNKALPASIEKTISKAKGQPREPQVYTLPPCREEMTKNQVSLWCLVKGFYPSDIAVEWESNGQPENNYKTTPPVLDSDGSFFLYSKLTVDKSRWQQGNVFSCSVMHEALHNHYTQKSLSLSPGK
# heavy: B1 chain 2
# light: B1 chain 3
# B3: CD3 × CD33-BspAb71 (bispecific antibody)
# chain 1: EVQLVESGGGLVKPGGSLRLSCAASGFTFSSYSMNWVRQAPGKCLEWVSSISRSSSYIYYADSVKGRFTLSRDNAKNSLYLQMNSLRGEDTAIYYCGRDGKGAIFLDYWGQGTLVTVSSGGGGSGGGGSGGGGSGGGGSSYELTQPPSVSVSPGQTARITCSGDALPKKYAYWYQQKSGQAPVLVIYEDSKRPSGIPERFSGSSSGTMATLTISGAQVEDEADYYCYSTHSSGNHRVFGCGTKLTVLDKTHTCPPCPAPEFEGGPSVFLFPPKPKDTLMISRTPEVTCVVVDVSHEDPEVKFNWYVDGVEVHNAKTKPREEQYNSTYRVVSVLTVLHQDWLNGKEYKCKVSNKALPASIEKTISKAKGQPREPQVYTLPPCREEMTKNQVSLWCLVKGFYPSDIAVEWESNGQPENNYKTTPPVLDSDGSFFLYSKLTVDKSRWQQGNVFSCSVMHEALHNHYTQKSLSLSPGK
# chain 2: B1 chain 2
# chain 3: B1 chain 3
# B4: High affinity Control (Control Humanized anti-CD3 (high affinity) scFv-Fc knob/TM with gemtuzumab arm) (bispecific antibody)
# scFv: B2 scFv with D113A
# heavy: B1 chain 2
# light: B1 chain 3
# Target: T1, human CD3 (on human Pan-T cells or donor PBMC) (human, UniProt P07766 23-207; P04234 22-171; P09693 23-182; P20963 22-164)
# T1 sequence (P07766 23-207, chain 1 of 4): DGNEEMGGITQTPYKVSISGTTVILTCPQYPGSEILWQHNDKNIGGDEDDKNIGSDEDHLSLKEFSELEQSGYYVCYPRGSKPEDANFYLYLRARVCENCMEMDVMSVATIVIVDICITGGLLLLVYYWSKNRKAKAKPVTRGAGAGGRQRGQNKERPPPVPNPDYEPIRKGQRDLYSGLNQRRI
# T1 sequence (P04234 22-171, chain 2 of 4): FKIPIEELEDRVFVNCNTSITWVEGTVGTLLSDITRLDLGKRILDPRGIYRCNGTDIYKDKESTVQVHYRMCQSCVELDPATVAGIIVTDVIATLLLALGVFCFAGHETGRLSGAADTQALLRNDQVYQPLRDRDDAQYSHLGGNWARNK
# T1 sequence (P09693 23-182, chain 3 of 4): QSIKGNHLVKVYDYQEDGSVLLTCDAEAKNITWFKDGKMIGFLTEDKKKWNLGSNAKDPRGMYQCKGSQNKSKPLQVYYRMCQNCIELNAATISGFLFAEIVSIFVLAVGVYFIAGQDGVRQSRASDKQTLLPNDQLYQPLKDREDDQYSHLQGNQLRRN
# T1 sequence (P20963 22-164, chain 4 of 4): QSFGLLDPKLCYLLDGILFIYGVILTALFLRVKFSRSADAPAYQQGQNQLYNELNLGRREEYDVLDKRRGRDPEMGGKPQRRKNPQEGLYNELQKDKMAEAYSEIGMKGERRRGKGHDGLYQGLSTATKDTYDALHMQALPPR
# Assay: cell-based or functional assay
"Cytokine Release Assay (IFNγ), Donor 0, EC50","Cytokine Release Assay (IFNγ), Donor 0, gMFI max","Cytokine Release Assay (IFNγ), Donor 1, gMFI max","Cytokine Release Assay (IFNγ), Donor 2, EC50","Cytokine Release Assay (IFNγ), Donor 2, gMFI max","Cytokine Release Assay (IFNγ), Donor 3, EC50","Cytokine Release Assay (IFNγ), Donor 3, gMFI max","Cytokine Release Assay (IFNγ), Donor 1, EC50",Binder
~12.3 nM,958000 gMFI,4940 gMFI,0.103 nM,16200 gMFI,0.063 nM,170000 gMFI,,B1
0.308 nM,2.92e+06 gMFI,129000 gMFI,16.4 nM,712000 gMFI,11.4 nM,1.08e+06 gMFI,14.4 nM,B2
,812000 gMFI,5380 gMFI,1.91 nM,27700 gMFI,,332000 gMFI,,B3
0.045 nM,2.82e+06 gMFI,912000 gMFI,2.16 nM,1.41e+06 gMFI,0.126 nM,1.68e+06 gMFI,6.99 nM,B4

# Target: T1, human CD3 (on human Pan-T cells or …)
# Assay: cell-based or functional assay
# Remark: another data set of the same source
"RTCC Assay, Donor 0, EC50","RTCC Assay, Donor 0, gMFI max","RTCC Assay, Donor 1, EC50","RTCC Assay, Donor 1, gMFI max","RTCC Assay, Donor 2, EC50","RTCC Assay, Donor 2, gMFI max","RTCC Assay, Donor 3, EC50","RTCC Assay, Donor 3, gMFI max",Binder
0.166 nM,26700 gMFI,0.027 nM,65500 gMFI,0.049 nM,54600 gMFI,0.055 nM,84200 gMFI,B1
23.7 nM,59700 gMFI,5.02 nM,122000 gMFI,6.68 nM,82100 gMFI,0.299 nM,104000 gMFI,B2
0.479 nM,23900 gMFI,0.027 nM,63000 gMFI,0.083 nM,57500 gMFI,0.377 nM,78600 gMFI,B3
0.908 nM,75100 gMFI,0.04 nM,81700 gMFI,0.039 nM,82900 gMFI,0.031 nM,87200 gMFI,B4
